In one data set the target is T1, Rsp3690 (Cereibacter sphaeroides, UniProt Q3IVY4).
T1 sequence (Q3IVY4 1-354): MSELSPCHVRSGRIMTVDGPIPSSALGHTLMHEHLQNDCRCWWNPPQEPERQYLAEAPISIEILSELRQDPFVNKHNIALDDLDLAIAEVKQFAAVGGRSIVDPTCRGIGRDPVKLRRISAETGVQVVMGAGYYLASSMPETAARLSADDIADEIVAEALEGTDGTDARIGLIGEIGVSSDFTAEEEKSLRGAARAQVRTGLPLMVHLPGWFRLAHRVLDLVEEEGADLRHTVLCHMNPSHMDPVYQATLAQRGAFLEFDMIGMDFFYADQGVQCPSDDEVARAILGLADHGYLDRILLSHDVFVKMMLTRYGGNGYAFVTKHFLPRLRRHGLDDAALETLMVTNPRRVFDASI
Kind of data set: 4-nitrophenol release at […] nm. To be noted: pH 8.3, 30 °C, 400 μM MnCl2, Mn enzyme.

Substrate in data set [1]: CC(=O)Nc1ccc([N+](=O)[O-])cc1
Kind of data set: purified protein. To be noted: pH 8.3, 30 °C, 400 μM MnCl2, Mn enzyme.

Substrate in data set [2]: CCCCCCCC(=O)Oc1ccc([N+](=O)[O-])cc1
Kind of data set: purified protein. To be noted: pH 8.3, 30 °C, 400 μM MnCl2, Mn enzyme.

Substrate in data set [3]: CCCCCC(=O)Oc1ccc([N+](=O)[O-])cc1
Kind of data set: purified protein. Particulars: pH 8.3, 30 °C, 400 μM MnCl2, Mn enzyme.

Substrate in data set [4]: CC(=O)Oc1ccc([N+](=O)[O-])cc1
Kind of data set: purified protein. Particulars: pH 8.3, 30 °C, 400 μM MnCl2, Mn enzyme.

Substrate in data set [5]: CCCC(=O)Oc1ccc([N+](=O)[O-])cc1
Kind of data set: purified protein. To be noted: pH 8.3, 30 °C, 400 μM MnCl2, Mn enzyme.

Substrate in data set [6]: CC(=O)Oc1cccc2ccccc12
Description: purified protein. The class given is biochemical, Cereibacter sphaeroides. To be noted: pH 8.3, 30 °C, 400 μM MnCl2, Mn enzyme.

Substrate in data set [7]: CC(=O)Oc1c[nH]c2ccccc12
Description: purified protein. In kind it is biochemical, Cereibacter sphaeroides. Particulars: 50 mM Hepes pH 8.3, 1% ethanol, 30 °C, 400 μM MnCl2, Mn enzyme.

Substrate in data set [8]: CCCCCCC(=O)Oc1ccc2c(C)cc(=O)oc2c1
Kind of data set: purified protein. To be noted: pH 8.3, 30 °C, 400 μM MnCl2, Mn enzyme. In kind it is biochemical, Cereibacter sphaeroides.

Substrate in data set [9]: CC(=O)Oc1ccc(OC(C)=O)cc1
Kind of data set: purified protein. In kind it is biochemical, Cereibacter sphaeroides. Particulars: pH 8.3, 30 °C, 400 μM MnCl2, Mn enzyme.

Substrate in data set [10]: CCCC(=O)Oc1cccc2ccccc12
Description: purified protein. In kind it is biochemical, Cereibacter sphaeroides. Particulars: pH 8.3, 30 °C, 400 μM MnCl2, Mn enzyme.

Substrate in data set [11]: CCCC(=O)Oc1ccc2c(C)cc(=O)oc2c1
Kind of data set: purified protein. Particulars: pH 8.3, 30 °C, 400 μM MnCl2, Mn enzyme. In kind it is biochemical, Cereibacter sphaeroides.

Substrate in data set [12]: CC(=O)OCc1ccccc1
Description: purified protein. In kind it is biochemical, Cereibacter sphaeroides. Particulars: pH 8.3, 30 °C, 400 μM MnCl2, Mn enzyme.

Substrate in data set [13]: CC(=O)Oc1ccc2ccccc2c1
Description: purified protein. The class given is biochemical, Cereibacter sphaeroides. Particulars: pH 8.3, 30 °C, 400 μM MnCl2, Mn enzyme.

Substrate in data set [14]: CC(=O)Oc1ccccc1
Kind of data set: purified protein. In kind it is biochemical, Cereibacter sphaeroides. To be noted: pH 8.3, 30 °C, 400 μM MnCl2, Mn enzyme.

Substrate in data set [15]: CCC(=O)Oc1ccc2ccccc2c1
Kind of data set: purified protein. In kind it is biochemical, Cereibacter sphaeroides. To be noted: pH 8.3, 30 °C, 400 μM MnCl2, Mn enzyme.

Substrate in data set [16]: CC(=O)Oc1ccc2c(C)cc(=O)oc2c1
Description: purified protein. The class given is biochemical, Cereibacter sphaeroides. To be noted: pH 8.3, 30 °C, 400 μM MnCl2, Mn enzyme.

Substrate in data set [17]: CC(=O)Oc1cccnc1
Kind of data set: purified protein. In kind it is biochemical, Cereibacter sphaeroides. Particulars: pH 8.3, 30 °C, 400 μM MnCl2, Mn enzyme.

Substrate in data set [18]: CC(=O)Nc1ccc(Cl)cc1
Kind of data set: purified protein. The class given is biochemical, Cereibacter sphaeroides. Particulars: pH 8.3, 30 °C, 400 μM MnCl2, Mn enzyme.

Drawing on publication PMC4045322 (Biochemistry, 2014), this text covers Km, kcat and kcat/Km for three molecules.

With `CCOP(=O)(OCC)Oc1ccc([N+](=O)[O-])cc1` [compound 27, paraoxon], the Km – broadly, the concentration of substrate that gives half-maximal velocity – on Rsp3690 came to 110 ± 10 µM.
On the same count and under the same terms, then `COP(=O)(OC)Oc1ccc([N+](=O)[O-])cc1` [compound 26, methyl paraoxon], with 420 ± 40 µM.

B1: Rsp3690 (Cereibacter sphaeroides 2.4.1) (protein)
chain: MSELSPCHVRSGRIMTVDGPIPSSALGHTLMHEHLQNDCRCWWNPPQEPERQYLAEAPISIEILSELRQDPFVNKHNIALDDLDLAIAEVKQFAAVGGRSIVDPTCRGIGRDPVKLRRISAETGVQVVMGAGYYLASSMPETAARLSADDIADEIVAEALEGTDGTDARIGLIGEIGVSSDFTAEEEKSLRGAARAQVRTGLPLMVHLPGWFRLAHRVLDLVEEEGADLRHTVLCHMNPSHMDPVYQATLAQRGAFLEFDMIGMDFFYADQGVQCPSDDEVARAILGLADHGYLDRILLSHDVFVKMMLTRYGGNGYAFVTKHFLPRLRRHGLDDAALETLMVTNPRRVFDASI
For B1, the Km in the data set “purified protein [1]” is 650 ± 60 µM; in “purified protein [2]”, 33 ± 4 µM; in “purified protein [3]”, 48 ± 5 µM; in the data set “purified protein [4]” it was 520 ± 40 µM; in “purified protein [5]” it was 56 ± 3 µM; in the data set “purified protein [6]”, 640 ± 70 µM. Besides, the Km in the data set “purified protein [7]” was found to be 1900 ± 200 µM; in “purified protein [8]” it was 24 ± 3 µM; in the data set “purified protein [9]”, 900 ± 100 µM; in the data set “purified protein [10]”, 180 ± 20 µM; in “purified protein [11]”, 160 ± 20 µM; in “purified protein [12]”, 1600 ± 100 µM. Further, the Km stood at 400 ± 40 µM in “purified protein [13]”; 2800 ± 200 µM in “purified protein [14]”; 560 ± 30 µM in the data set “purified protein [15]”; 240 ± 20 µM in “purified protein [16]”; 1800 ± 200 µM in “purified protein [17]”; 1600 ± 100 µM in the data set “purified protein [18]”. Moreover, the kcat (commonly the number of substrate molecules converted per active site and unit of time at saturation) is 0.36 ± 0.02 s⁻¹ in “purified protein [1]”; 0.5 ± 0.01 s⁻¹ in “purified protein [2]”; 6.5 ± 0.2 s⁻¹ in the data set “purified protein [3]”; 120 ± 3 s⁻¹ in the data set “purified protein [4]”; 50 ± 1 s⁻¹ in the data set “purified protein [5]”; 4.8 ± 0.1 s⁻¹ in the data set “purified protein [6]”. Further, the kcat in the data set “purified protein [7]” stood at 2.3 ± 0.1 s⁻¹; in “purified protein [8]” it was 0.063 ± 0.001 s⁻¹; in “purified protein [9]” it was 108 ± 4 s⁻¹; in “purified protein [10]”, 9 ± 1 s⁻¹; in “purified protein [11]”, 4.9 ± 0.2 s⁻¹; in “purified protein [12]”, 2.5 ± 0.1 s⁻¹. Further, the kcat was found to be 40 ± 2 s⁻¹ in “purified protein [13]”; 30 ± 1 s⁻¹ in “purified protein [14]”; 83 ± 2 s⁻¹ in “purified protein [15]”; 0.65 ± 0.02 s⁻¹ in “purified protein [16]”; 4.3 ± 0.3 s⁻¹ in “purified protein [17]”; 0.1 ± 0.01 s⁻¹ in “purified protein [18]”. The kcat/Km (as a rule, the second-order rate constant that governs catalysis at low substrate concentration) in the data set “purified protein [1]” was determined as 550 ± 60 M⁻¹ s⁻¹; in “purified protein [2]” it was 15000 ± 2000 M⁻¹ s⁻¹; in the data set “purified protein [3]”, 130000 ± 10000 M⁻¹ s⁻¹; in the data set “purified protein [4]”, 230000 ± 20000 M⁻¹ s⁻¹; in the data set “purified protein [5]” it was 880000 ± 40000 M⁻¹ s⁻¹; in the data set “purified protein [6]” it was 7500 ± 100 M⁻¹ s⁻¹. Further, the kcat/Km in “purified protein [7]” is 1200 ± 100 M⁻¹ s⁻¹; in the data set “purified protein [8]”, 2600 ± 300 M⁻¹ s⁻¹; in “purified protein [9]” it was 130000 ± 10000 M⁻¹ s⁻¹; in “purified protein [10]”, 50000 ± 6000 M⁻¹ s⁻¹; in “purified protein [11]” it was 31000 ± 4000 M⁻¹ s⁻¹; in “purified protein [12]”, 1600 ± 100 M⁻¹ s⁻¹. Besides, the kcat/Km was found to be 100000 ± 10000 M⁻¹ s⁻¹ in the data set “purified protein [13]”; 11000 ± 1000 M⁻¹ s⁻¹ in the data set “purified protein [14]”; 150000 ± 10000 M⁻¹ s⁻¹ in the data set “purified protein [15]”; 2700 ± 200 M⁻¹ s⁻¹ in “purified protein [16]”; 2400 ± 300 M⁻¹ s⁻¹ in the data set “purified protein [17]”; 63 ± 7 M⁻¹ s⁻¹ in the data set “purified protein [18]”.
